The values below come from article doi:10.1101/2025.07.24.666444.

In assay [1] the target is AtPCO4 Y73R (Arabidopsis thaliana).
Assay [2] concerns the target AtPCO4 Y183F (Arabidopsis thaliana).
Assay [3] addresses AtPCO4 S107L (Arabidopsis thaliana).
Assay [4] deals with AtPCO4 V105G (Arabidopsis thaliana).
In assay [5] the target is AtPCO4 Y73R (Arabidopsis thaliana). Nature of the assay: other fluorescence titration.
Assay [6] has as its target AtPCO4 D177E (Arabidopsis thaliana). Nature of the assay: other fluorescence titration.
Assay [7] has as its target AtPCO4 Y183F (Arabidopsis thaliana). Nature of the assay: other fluorescence titration.
In assay [8] the target is AtPCO4 C173A (Arabidopsis thaliana). Briefly: other fluorescence titration.

As to “RAP2.12_(2-15) peptide substrate (from UniProt Q9SSA8 2-15)”, the values for the catalytic constant (kcat) of RAP2.12 (2-15) oxidation in assay [1] and in assay [2] were 0.0167 s⁻¹ and 0.5 s⁻¹, respectively. Moreover, the results for the Michaelis-Menten constant (KM) for RAP2.12 (2-15) in the activity assay in assay [3] and in assay [4] were 99 µM and 97 µM, respectively. In addition, the Kd in assay [5] was determined as 3 mM; in assay [6] it was 0.15 mM; in assay [7] it was 3.5 mM; in assay [8], 0.25 mM.
